The target in data set [1] is F-actin (actin filaments) from rabbit leg and back muscle (UniProt P68135). Put plainly: single-molecule TIRF microscopy; in vitro motility assay under TIRF; HMM (342.8 nM incubation) on TMCS glass; Alexa-488 phalloidin F-actin propelled with 1 mM MgATP; 5 nM Alexa-647 gelsolin; pCa 8.2; 23 °C. Conditions: other: single-molecule TIRF microscopy.
The target of data set [2] is F-actin (actin filaments) from rabbit leg and back muscle (rabbit) (UniProt P68135). The experiment in a line: single-molecule TIRF microscopy; HMM (34.2 nM incubation) adsorbed on TMCS glass; rhodamine phalloidin F-actin (5 nM) held stationary in rigor, no MgATP; 5 nM Alexa-647 gelsolin in solution; no added Ca2+ (pCa > 9); 23 °C; 9 min observation.
The target is the same in data set [3]. The experiment in a line: single-molecule TIRF microscopy; in vitro motility assay under TIRF; HMM (342.8 nM incubation) on TMCS glass; Alexa-488 phalloidin F-actin propelled with 1 mM MgATP; 5 nM Alexa-647 gelsolin; pCa 8.2; 23 °C.

Regarding “Alexa-647-labeled gelsolin (His-tagged recombinant full-length human cytoplasmic gelsolin)”, the “percent of sliding filaments with bound gelsolin, corrected for the labeling efficiency” value in data set [1] is given as “approximately 55% of all sliding filaments have bound gelsolin”.

In turn, “Alexa-647-labeled gelsolin (His-tagged recombinant full-length human cytoplasmic gelsolin) (natural protein)” gave a gelsolin attachments per filament during 9 min in data set [2] of 1.7 per filament. In data set [3], this substance had a gelsolin molecules bound per filament of 1 per filament and a percent of HMM-propelled actin filaments with bound labeled gelsolin of 36.5%.

Source of the values: article PMC7948409.
